According to patent US20250152742A1, “COMPOSITIONS AND METHODS FOR NEUROLOGICAL DISEASES” (Trames Bio, Inc., priority 2022, published 2025):
Substitutions are numbered along the chain they refer to. In names and notes the source's numbering stands.

Test system: engineered chimeric receptor SEQ ID NO: 33 and its mutants (human α7-nAChR ligand binding domain / human GlyRα1 ion pore domain) in Lenti-X 293T cells
Assay: YFP fluorescence quenching anion reporter plate reader assay (percent quench, EC50)
Assay type: cell-based
Details: for YFP fluorescence quenching using CNL001 (percent quench): receptor named in row; for YFP fluorescence quenching using Varenicline, 3 nM var: ligand Varenicline 3 nM; for YFP fluorescence quenching using Varenicline, 30 nM var: ligand Varenicline 30 nM; for YFP fluorescence quenching using Varenicline, 300 nM var: ligand Varenicline 300 nM; for YFP fluorescence quenching using Varenicline, 500 nM var: ligand Varenicline 500 nM; for YFP fluorescence quenching using Varenicline, 1 uM var: ligand Varenicline 1 uM
Method in brief: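 Lenti-X 293T cells co-expressing an anion-quenchable YFP were transiently transfected with receptor DNA, then ligand was added in NaI-substituted buffer (pH 7.2) after 30 min at 37 °C. Fluorescence was read about 2 min; percent quench = mean of last 10 s over 15 s pre-ligand baseline.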

[1] = 1 nM CNL001, first column so headed
[2] = 1 nM CNL001, second column so headed
[3] = 3 nM brd (TC-5619/Bradanicline)
[4] = 10 nM CNL001, first column so headed
[5] = 10 nM CNL001, second column so headed
[6] = 30 nM brd (TC-5619/Bradanicline)
[7] = 50 nM CNL001, first column so headed
[8] = 50 nM CNL001, second column so headed
[9] = 100 nM CNL001, first column so headed
[10] = 100 nM CNL001, second column so headed
[11] = 300 nM brd (TC-5619/Bradanicline)
[12] = 1 uM CNL001, first column so headed
[13] = 1 uM CNL001, second column so headed

B1: CODA965: engineered receptor: Y140C in SEQ ID NO: 33 (protein)
chain: MRCSPGGVWLALAASLLHVSLQGEFQRKLYKELVKNYNPLERPVANDSQPLTVYFSLSLLQIMDVDEKNQVLTTNIWLQMSWTDHYLQWNVSEYPGVKTVRFPDGQIWKPDILLYNSADERFDATFHTNVLVNSSGHCQCLPPGIFKSSCPMDLKNFPMDVQTCKLKFGSWSYGGWSLDLQMQEADISGYIPNGEWDLVGIPGKRSERFYECCKEPYPDVTFTVTMRRRMGYYLIQMYIPSLLIVILSWISFWINMDAAPARVGLGITTVLTMTTQSSGSRASLPKVSYVKAIDIWMAVCLLFVFSALLEYAAVNFVSRQHKELLRFRRKRRHHKSPMLNLFQEDEAGEGRFNFSAYGMGPACLQAKDGISVKGANNSNTTNPPPAPSKSPEEMRKLFIQRAKKIDKISRIGFPMAFLIFNMFYWIIYKIVRREDVHNQ
modifications: synthetic sequence of chimeric LGIC
For B1, the “YFP fluorescence quenching using CNL001 (percent quench)” value [1] was −12.765%, the “YFP fluorescence quenching using CNL001 (percent quench)” value [2] was −12.608% and the “YFP fluorescence quenching using TC-5619/Bradanicline (percent quench)” value [3] was −18.49%. For the same molecule, the “YFP fluorescence quenching using CNL001 (percent quench)” value [4] was 68.134%, the “YFP fluorescence quenching using CNL001 (percent quench)” value [5] was 71.394% and the “YFP fluorescence quenching using TC-6683 (percent quench)” value (30 nM TC-6683) was −8.21%. The “YFP fluorescence quenching using TC-5619/Bradanicline (percent quench)” value [6] was 22.66%, the “YFP fluorescence quenching using CNL001 (percent quench)” value [7] was 80.298% and the “YFP fluorescence quenching using CNL001 (percent quench)” value [8] was 82.159%. The “YFP fluorescence quenching using ABT-126 (percent quench)” value (50 nM abt (ABT-126)) was −10.75%, the “YFP fluorescence quenching using CNL001 (percent quench)” value [9] was 82.404% and the “YFP fluorescence quenching using CNL001 (percent quench)” value [10] was 82.14%. The “YFP fluorescence quenching (percent quench)” value (100 nM CNL002) was 43.24%, the “YFP fluorescence quenching using ABT-126 (percent quench)” value (100 nM abt (ABT-126)) was −4.11% and the “YFP fluorescence quenching using AZD-0328 (percent quench)” value (100 nM azd0328) was −16.69%. For the same molecule, the “YFP fluorescence quenching using TC-6683 (percent quench)” value (300 nM TC-6683) was −16.37%, the “YFP fluorescence quenching using ABT-126 (percent quench)” value (300 nM abt (ABT-126)) was 18.93% and the “YFP fluorescence quenching using AZD-0328 (percent quench)” value (300 nM azd0328) was 1.3%. The “YFP fluorescence quenching using TC-5619/Bradanicline (percent quench)” value [11] was 38.02%, the “YFP fluorescence quenching using CNL001 (percent quench)” value [12] was 82.34% and the “YFP fluorescence quenching using CNL001 (percent quench)” value [13] was 80.649%. The “YFP fluorescence quenching (percent quench)” value (1 uM CNL002) was 42.72%, the “YFP fluorescence quenching using ABT-126 (percent quench)” value (1 uM abt (ABT-126)) was 52.64% and the “YFP fluorescence quenching using TC-6683 (percent quench)” value (3 uM TC-6683) was −19.48%. For the same molecule, the “YFP fluorescence quenching (percent quench)” value (10 uM ach (acetylcholine)) was −21.71%, the “YFP fluorescence quenching (percent quench)” value (30 uM CNL002) was 51.43% and the “YFP fluorescence quenching using TC-6683 (percent quench)” value (30 uM TC-6683) was −24.32%. For the same molecule, the “YFP fluorescence quenching using AZD-0328 (percent quench)” value (30 uM azd0328) was 21.78%, the “YFP fluorescence quenching using TC-6683 (percent quench)” value (100 uM TC-6683) was −24.99% and the “YFP fluorescence quenching (percent quench)” value (100 uM ach (acetylcholine)) was 3.49%. The “YFP fluorescence quenching (percent quench)” value (1 mM ach (acetylcholine)) was 63.34%, the “YFP fluorescence quenching (percent quench)” value (3 mM ach (acetylcholine)) was 51.92% and the “YFP fluorescence quenching using Facinicline, 30 nM fac” value (ligand Facinicline 30 nM) was −12.29. The “YFP fluorescence quenching using Facinicline, 300 nM fac” value (ligand Facinicline 300 nM) was 20.11, the “YFP fluorescence quenching using Facinicline, 30 uM fac” value (ligand Facinicline 30 uM) was 37.62 and the “YFP fluorescence quenching using TC-6987, 1 uM tc6987” value (ligand TC-6987 1 uM) was 2.73. The “YFP fluorescence quenching using TC-6987, 10 uM tc6987” value (ligand TC-6987 10 uM) was 30.37, the “YFP fluorescence quenching using TC-6987, 500 uM tc6987” value (ligand TC-6987 500 uM) was 33.07 and the “YFP fluorescence quenching using Varenicline, 3 nM var” value (“YFP fluorescence quenching … 3 nM var” below) (first column) was −17.716. The “YFP fluorescence quenching … 3 nM var” value (second column) was −23.019, the “YFP fluorescence quenching using Varenicline, 30 nM var” value (“YFP fluorescence quenching … 30 nM var” for short) (first column) was −14.993 and the “YFP fluorescence quenching … 30 nM var” value (second column) was −12.182. The “YFP fluorescence quenching using Varenicline, 300 nM var” value (shortened to “YFP fluorescence quenching … 300 nM var”) (first column) was −11.731, the “YFP fluorescence quenching … 300 nM var” value (second column) was −10.13 and the “YFP fluorescence quenching using Varenicline, 500 nM var” value (“YFP fluorescence quenching … 500 nM var” for short) (first column) was −12.518. The “YFP fluorescence quenching … 500 nM var” value (second column) was −15.043, the “YFP fluorescence quenching using Varenicline, 1 uM var” value (“YFP fluorescence quenching … 1 uM var” below) (first column) was −13.385 and the “YFP fluorescence quenching … 1 uM var” value (second column) was −17.022.

B2: CODA1047: engineered receptor: R101F, Y210V in SEQ ID NO: 33 (protein)
chain: B1 chain with R101F, C140Y, Y210V
modifications: synthetic sequence of chimeric LGIC
With B2 the “YFP fluorescence quenching using CNL001 (percent quench)” value [1] was −7.82%, the “YFP fluorescence quenching using CNL001 (percent quench)” value [2] was −8.382% and the “YFP fluorescence quenching using TC-5619/Bradanicline (percent quench)” value (1 nM brd (TC-5619/Bradanicline)) was −5.548%. The “YFP fluorescence quenching using TC-5619/Bradanicline (percent quench)” value [3] was −9.432%, the “YFP fluorescence quenching using CNL001 (percent quench)” value [4] was −5.381% and the “YFP fluorescence quenching using CNL001 (percent quench)” value [5] was −1.431%. The “YFP fluorescence quenching using TC-5619/Bradanicline (percent quench)” value (10 nM brd (TC-5619/Bradanicline)) was −3.068%, the “YFP fluorescence quenching using TC-6683 (percent quench)” value (30 nM TC-6683) was −24.195% and the “YFP fluorescence quenching using TC-5619/Bradanicline (percent quench)” value [6] was 2.368%. For the same molecule, the “YFP fluorescence quenching using CNL001 (percent quench)” value [7] was −0.999%, the “YFP fluorescence quenching using CNL001 (percent quench)” value [8] was 3.909% and the “YFP fluorescence quenching using ABT-126 (percent quench)” value (50 nM abt (ABT-126)) was −14.1%. The “YFP fluorescence quenching using CNL001 (percent quench)” value [9] was −0.823%, the “YFP fluorescence quenching using CNL001 (percent quench)” value [10] was −5.885% and the “YFP fluorescence quenching using ABT-126 (percent quench)” value (100 nM abt (ABT-126)) was −11.72%. For the same molecule, the “YFP fluorescence quenching using TC-5619/Bradanicline (percent quench)” value (100 nM brd (TC-5619/Bradanicline)) was 47.529%, the “YFP fluorescence quenching using TC-6683 (percent quench)” value (300 nM TC-6683) was −24.234% and the “YFP fluorescence quenching using ABT-126 (percent quench)” value (300 nM abt (ABT-126)) was −12.98%. For the same molecule, the “YFP fluorescence quenching using TC-5619/Bradanicline (percent quench)” value [11] was 74.413%, the “YFP fluorescence quenching using CNL001 (percent quench)” value [12] was 1.638% and the “YFP fluorescence quenching using CNL001 (percent quench)” value [13] was 3.483%. The “YFP fluorescence quenching using ABT-126 (percent quench)” value (1 uM abt (ABT-126)) was −15.09%, the “YFP fluorescence quenching using TC-6683 (percent quench)” value (3 uM TC-6683) was −21.291% and the “YFP fluorescence quenching (percent quench)” value (10 uM ach (acetylcholine)) was −4.26%. For the same molecule, the “YFP fluorescence quenching using TC-6683 (percent quench)” value (30 uM TC-6683) was −16.363%, the “YFP fluorescence quenching using TC-6683 (percent quench)” value (100 uM TC-6683) was −24.9% and the “YFP fluorescence quenching (percent quench)” value (100 uM ach (acetylcholine)) was −13.05%. The “YFP fluorescence quenching (percent quench)” value (300 uM ach (acetylcholine)) was −11.73%, the “YFP fluorescence quenching (percent quench)” value (500 uM ach (acetylcholine)) was −10.75% and the “YFP fluorescence quenching (percent quench)” value (1 mM ach (acetylcholine)) was −8.81%. For the same molecule, the “YFP fluorescence quenching (percent quench)” value (3 mM ach (acetylcholine)) was −6.77%, the “YFP fluorescence quenching (percent quench)” value (10 mM ach (acetylcholine)) was −1.03% and the “YFP fluorescence quenching … 3 nM var” value (first column) was −3.035. For the same molecule, the “YFP fluorescence quenching … 3 nM var” value (second column) was −0.786, the “YFP fluorescence quenching … 30 nM var” value (first column) was −5.181 and the “YFP fluorescence quenching … 30 nM var” value (second column) was 0.669. For the same molecule, the “YFP fluorescence quenching … 300 nM var” value (first column) was −2.748, the “YFP fluorescence quenching … 300 nM var” value (second column) was −6.708 and the “YFP fluorescence quenching … 500 nM var” value (first column) was −9.123. The “YFP fluorescence quenching … 500 nM var” value (second column) was −9.869, the “YFP fluorescence quenching … 1 uM var” value (first column) was −6.702 and the “YFP fluorescence quenching … 1 uM var” value (second column) was −7.26.
